From paper doi:10.1101/2021.12.26.474192 (bioRxiv, 2021)

Tests used:
[1] = molecular target: T1, SARS-CoV-2 spike HexaPro (S) (SARS-CoV-2, Wuhan-Hu-1, UniProt P0DTC2, stabilised); assay: ELISA
[2] = molecular target: T1, SARS-CoV-2 spike HexaPro (S); assay: cryo-EM structure

Binder | binding result [1] | binding result [2]
psNb 2-31 (VHH) VHH: QVQLVESGGGLVQAGESLRLSCAASKPTFRNFAAGWFRQTPGKDREFVAVIEYDGDSAYYADSVKGRFTISRDNAKNTVYLQMNRLKPGDTAVYICAIGGNHYDPSKYYTADEYDYWGQGTQVTVSS | binds | –
psNb 1-21 (VHH) VHH: HVQLVESGGGLVQAGGSLRLSCAAPGRTFSTSAMGWFRQAPGKEREFVAAIDWSNTNIHYADTVKGRFTISTDTAKNTVYLQMNNLKPEDTAVYYCAQGGWGLTQPISVDYWGKGTQVTVSS | binds | –
psNb 1-22 (VHH) VHH: HVQLVESGGGLVQPGGSLRLSCAASGRSFNSYLMGWFRQAPGKEREFVAWISGSPHDIIRYRDSVKDRFTISRDNAKNTVYLQMNSLKPVDTAVYYCAVGSLRVGSFSPDYWGQGTQVTVSS | – | binds
psNb 2-65 (VHH) VHH: HVQLVESGGGLVQAGGSLRLSCAASGTISTLNAMGWYRQAPGKQRELLASISNLGTTYHADSVAGRFTISRGSAKNTVNLQMNSLKPDDTAVYYCNTRVLEGGTQIRDYWGQGTQVTVSS | – | binds
psNb 2-38 (VHH) VHH: QVQLVESGGGLVQAGGSLRLSCAAAARFSTSAMGWFRQAPGKEREFVAAISWSNTNTHYADTVKGRFTISADTAKETVDLQMNSLKPEDTAVYYCVQGGWGIRQPIIVDYWGKGTQVTVSS | – | binds
psNb 2-45 (VHH) VHH: QVQLVESGGGLVQAGGSLRLSCTASGYDFSILAIAWYRQAPGKERELVAAISRVGSTDYADSVKGRFTISRDNTKNTVSLQMDSLKPEDTAVYYCNAGIPMTTVLSGLGFWGQGTQVTVSS | – | binds
psNb 1-25 (VHH) VHH: HVQLVESGGGLVQAGGSLRLSCATSGRTFSTYRMSWFRQAPGKEREFVATIIWSVGSTHYADSVKGRFTISRDNAKNMVYLQMNSLKPEDTAVYYCAAQRSDSSSWGYEDDYDYWGQGTQVTVSS | binds | –
psNb 2-67 (VHH) VHH: EVQLVESGGGLVQTGGSLRLSCALSGYTFSIFPTAWFRQAPGKEREFVAGIRWNGSTRDYTEYADFVKGRFTISRDNAKNMVYLQMISLKPEDTALYYCAASDGVIDGTNANAYRYWGQGTQVTVSS | binds | –
psNb 2-34 (VHH) VHH: HVQLVESGGGLVQAGGSLRLSCAASGRTFSRYAAGWFRQAPGKEREFVAVIEWDGDSAYYADPVKGRFTISRDNAKNTVYLQMNRLKPEDTAVYICAVGGNHYSRSKYYNLDEYDDWGQGTQVTVSS | – | binds
psNb 2-57 (VHH) VHH: QVQLVESGGGLVQAGGSLRLSCAVSGRTISTFGMGWFRQAPGKEREFVATITRDEDMLLYADSVKGRFTISRDTAKNMVFLQMNSLKIEDTALYYCAVRRDSSWGYSRQSTEYDYWGQGTQVTVSS | – | binds
psNb 1-23 (VHH) VHH: QVQLVESGGGLVQAGGSLRLSCAASGRTDSISDMGWFRQAPGKEREFVAVVGWSGGGTDYAHSVKGRFTISRDNAKNTVYLQMNSLKPEDTAVYYCAVGSLRVGSFSVEYWGQGTQVTVSS | – | binds
